The values that follow come from patent publication US20180201655A1 (University of California, published 2018).

Series [1] deals with the molecule itself. Description: native PAGE, self-association (homodimer). From the text:
(§1) FIG. 9A-FIG. 9C: Quaternary structure characterization of smURFP and TDsmURFP. (A) Native PAGE gel of APCαFPs. Monomeric IFP1.4 (36.5 kD) was ran as a reference. R4-1 runs as a tetramer, while R10-10 and smURFP run as a homodimer (32 kD). (B) Native PAGE gel of TDsmURFP. Monomeric IFP1.4 (36.5 kD) and tandem dimer Tomato (tdTomato, 54.2 kD) were ran as references. TDsmURFP (32.9 kD) runs slightly higher than smURFP due to 23 amino acid linker. (C) SDS denaturing PAGE gel of smURFP and TDsmURFP. BV was imaged by addition of zinc. All FPs show correct MW and covalently attached BV. […] (A-C) Each FP was run on two lanes. EX is excitation maximum and EM is emission maximum.
(§2) smURFP ran as a 32-kD homodimer on a native gel. R10-10 ran as a32-kD homodimer, while R4-1 was atetramer (FIG. 9a). Tandem dimer smURFP (TDsmURFP) was created by adding a 23-amino-acid linker between subunits and had ˜70% fluorescence of smURFP in bacteria (FIG. 2c). TDsmURFP (33 kD) ran near smURFP. tdTomato (54 kD) and IFP1.4 (37 kD) confirmed the dimeric nature of smURFP (FIG. 9a,b). To confirm covalent BV attachment, the FPs were run on a denaturing gel, and BV was detected with zinc²⁵. […] C52 is evolutionarily conserved among all APCαs and covalently attaches PCB (FIGS. 6 and 10a). The C52S mutation eliminated smURFP fluorescence (FIG. 10b,c), and C52 remains the BV attachment site. […]

Series [2] concerns the molecule itself. Nature of the series: stoichiometry column of the table of biophysical properties (self-association).
Series [3] concerns the molecule itself. Nature of the series: native PAGE, self-association (tetramer).
Description: as §1, §2

Changes are numbered by the printed parent chain.

B1: R10-10 (other)
chain: MKTCEQRVNIATLLTENKKKIVDKASQDLWRRHPDLIAPGGIAFSQRDRALCLRDYGWYLHLITFCLLAGDKGPIESIGLIGIREMYNSLGVPVPAMMESIRCLKEASLSLLDEEDANETAPYFDYIIKAMS
modifications: biliverdin (BV) covalently attached
notes: Evolved APCα fluorescent protein of round 10; runs as a homodimer on native PAGE; also called R10-10+BV; not shown: polyhistidine tag on the C terminus
Take B1: the binding result in series [1] is recorded as “binds”.

B2: small ultra-red fluorescent protein (smURFP) + BV (other)
chain: B1 chain with C4S, Y59F, G82S
modifications: biliverdin (BV) covalently attached at C52; predominant species has one BV per homodimer
notes: purified from E. coli co-expressing HO-1; runs as a homodimer on native PAGE; not shown: polyhistidine tag on the C terminus
B2: the binding result in series [2] is “binds”.

B3: smURFP + BVMe2 (other)
chain: B1 chain with C4S, Y59F, G82S
modifications: biliverdin dimethyl ester (BVMe2) attached, a single BVMe2 per homodimer
notes: smURFP purified without chromophore, BVMe2 added in vitro; detected by mass spectrometry as the homodimer + BVMe2; also called smURFP+1BVMe2; not shown: polyhistidine tag on the C terminus
Regarding B3, in series [2], the binding result is “binds”.

B4: R4-1 (other)
chain: MKTGEQRVKIATLLSENEKKIVDKASQDLWRRRPDFIAPGGIAFSQRERALCLRDYRWYLHLITFCLLAGDKDPIESIGLIGIREMYNSLGVPVPGMMESIRCLKEASLSLLDEEDAKETAPYFDYIIKAMS
modifications: biliverdin (BV) covalently attached
notes: Evolved APCα fluorescent protein of round 4; runs as a tetramer on native PAGE; also called R4-1+BV; not shown: polyhistidine tag on the C terminus
Consider B4, for which the binding result in series [3] is “binds”.
